# Data reported in the supplement of paper PMC12764529.
# ± gives the half width of the 95% confidence interval.
# Experiment: folding stability dG unfold (combined trypsin and chymotrypsin); higher = more stable
# Experimental: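 Folding stability of de novo designed mini-proteins (<80 aa, no Cys; designed by TrROS, TrMRF, ProteinMPNN and the joint model) was measured by cDNA display proteolysis with trypsin and chymotrypsin. Each protease was used at 11 concentrations in a threefold dilution series plus a no-protease condition. K50 was inferred by Bayesian fitting of sequencing counts, and dG unfold was derived against a sequence-predicted unfolded-state K50 (Tsuboyama et al. method). Sequences shown include variable-length N-terminal GS-type padding (SAGGSAGG...) inside a display construct carrying a PA tag. Rows were kept only if the AF2 dimer inter-PAE was >15, to exclude likely homo-oligomers.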
row,Sequence,folding stability dG unfold
1,SAGGSAGGSAIVEKIAKEFGFPAKIEVKRERNPGKWVVIPVRVRDPNGGKTWERKIHLPPNQSAGGSAGGSA [r18_313_TrROS],< -1 kcal/mol
2,SAGGSAGGSAKHDVKIDDVERMPNPYRFTITFPGNGKPIPIPFRPNMSIDEMKKEAKELAKSAGGSAGGSAG [r3_142_TrROS],< -1 kcal/mol
3,SAGGSAGGSAKIKLENPDNMPPEELADTIAEEAREQHPDDKNIEIPFQFPNGNPWRITVDVPSAGGSAGGSA [r18_449_TrROS],< -1 kcal/mol
4,SAGGSAGGSAMEAEATPIPLETEEFEIVVTILPGGTARVTTTPPEDGVPTESTVSVETVRALSAGGSAGGSA [r18_247_JUSTAS],< -1 kcal/mol
5,SAGGSAGGSAMLVELEAGRVIEVPDATPEETRERVRAAVPPEVADEVRIVRAYDPERPVELSAGGSAGGSAG [r3_340_JUSTAS],< -1 kcal/mol
6,SAGGSAGGSAMNVKFFKLSENELRIEYNEIEEFEDGSLSEEIKTEILKLNLPEDDKKVKELLSAGGSAGGSA [r18_215_JUSTAS],< -1 kcal/mol
7,SAGGSAGGSAMSVSVSSPENAEKLAKEIKEKNPNEIPKITKGSGSNSYTLTLPSGKNIKVSSSAGGSAGGSA [r18_154_JUSTAS],< -1 kcal/mol
8,SAGGSAGGSAMTLRDIARELAEKHGEPYKIKISHPNGRKREFNPDDLDRIPPGPWEVEIERPSAGGSAGGSA [r18_394_TrROS],< -1 kcal/mol
9,SAGGSAGGSAMTSVKRSSGSWSITITTPDSTTTTTKAATEEEVQAEVEELKKPGIKVELSPESAGGSAGGSA [r18_103_JUSTAS],< -1 kcal/mol
10,SAGGSAGGSANPRTITVQYPVDPNGKPLPAEELADELQNEPFKVTDPQWNPEDGYVEDTIEVSAGGSAGGSA [r18_466_TrROS],< -1 kcal/mol
11,SAGGSAGGSAPDMYRIRAKFPDGKPFPIEFNPEDGQIEVWDGNKEQTIPPGKPIKIDKIEPVSAGGSAGGSA [r18_144_TrROS],< -1 kcal/mol
12,SAGGSAGGSAPEFVVEGSEEEAEAVFERIKAERPEEFEATDISTVSAVPPVPRYTPEGVLVSAGGSAGGSAG [r3_89_JUSTAS],< -1 kcal/mol
13,SAGGSAGGSASAEELAEALRREHPDAEVTVTVTPVPREVGPRPVLEREVTVESVRSPEEPASAGGSAGGSAG [r3_118_JUSTAS],< -1 kcal/mol
14,SAGGSAGGSASAWEQYPNTTPGTTSKTDDVTVRTLTFPNPTTVVTVTEFPGGEVTVTTVPTPSAGGSAGGSA [r18_26_JUSTAS],< -1 kcal/mol
15,SAGGSAGGSASMRTITITSSTSPSGPPLPAAELAAELAKEGYTVTDPRRVPAEGKLVFTVVASAGGSAGGSA [r18_466_JUSTAS],< -1 kcal/mol
16,SAGGSAGGSASSWTLLSTEKLGSKTRTTMNDPANGKTVTIETDPANGSKVVKVENKETEIESAGGSAGGSAG [r3_297_JUSTAS],< -1 kcal/mol
17,SAGGSAGGSATLEQIKEAIKDSPPGEPARIPFPNGYTIRIDMRYDKEENKIDDFDIEIEPPNSAGGSAGGSA [r18_202_TrROS],< -1 kcal/mol
18,SAGGSAGGSAYFVRIDNGPTIPIPGMSPDEAKEQLKEYLPPPNKENLKITDVYSPDNGKPLSAGGSAGGSAG [r3_340_TrROS],< -1 kcal/mol
19,SAGGSAGGSDKFKIDNIYPDPDMWVYRIKFPKGKSHTFPIPEENIDEFAEDDGFNVEPLGPVPSAGGSAGGS [r12_676_TrROS],< -1 kcal/mol

row,Sequence,folding stability dG unfold
1,SAGGSAGGSEVTEFTGTIEDPNSSTVIEVKTKVIPLPNGTPVTITETTTTTGEKTTTTTTTFASAGGSAGGS [r12_619_JUSTAS],< -1 kcal/mol
2,SAGGSAGGSGDKSPPLVPTVTLKTTDPDAVEKAVKAAGVAVTRYPGKGYYTFRKADVEKILKSSAGGSAGGS [r12_325_TrMRF],< -1 kcal/mol
3,SAGGSAGGSGKIPKLIKEIGIPYEVKSIKVTTGKDDKPTVEIEFLPDVPEEDREKIKKAIEEESAGGSAGGS [r12_352_TrMRF],< -1 kcal/mol
4,SAGGSAGGSGMEPTFVPVEEIYYNPESNEISKTKSTVVIPPDGTVETFTTTEKFKKPPNASLESAGGSAGGS [r12_116_JUSTAS],< -1 kcal/mol
5,SAGGSAGGSGMPIVVTHPSGVGLDEYIPEPYVVTMREPDSVIKVTYDPATGTVTTEVDDGAARSAGGSAGGS [r12_243_JUSTAS],< -1 kcal/mol
6,SAGGSAGGSGMPVVLLEATFDPNNPGTTYRLTTVDPNTGGVAESEIPASEAEARGLGPLDVLESAGGSAGGS [r12_123_JUSTAS],< -1 kcal/mol
7,SAGGSAGGSISPEAAKEGPLTIEVSWMHPDGRTEEEEFPIGQPIKIPPDFKDRPPQITSIRPRSAGGSAGGS [r12_161_TrROS],< -1 kcal/mol
8,SAGGSAGGSKILEIERDPEKGLVKITVPPDVPPNPHPRLLKVEPKNNKYIVTFPMSPSDEIELSAGGSAGGS [r20_37_JUSTAS],< -1 kcal/mol
9,SAGGSAGGSKLKIEQDPSDGFLQIQIPPGDEEVKIKFNGEEIEFPLPPGQPIWIPANNWKIEPSAGGSAGGS [r20_26_TrROS],< -1 kcal/mol
10,SAGGSAGGSLVELEEEDPSVPVRRRYFIEKPSDGKVKVKEETVVPEPGEVVRSERVISLEEFEKSAGGSAGG [r6_652_JUSTAS],< -1 kcal/mol
11,SAGGSAGGSMDDTEEESSSVSRFLENGERYTTRTKTTTRIRPDGTEEVEVEVTTTPLPPDVPLSAGGSAGGS [r12_927_JUSTAS],< -1 kcal/mol
12,SAGGSAGGSMELPSGVVVKSTSEDPAAKTVTVSFPSGAVYTLPLPDPNVSQPVTVKTPPGAGVSAGGSAGGS [r12_149_JUSTAS],< -1 kcal/mol
13,SAGGSAGGSMKTVTIEVKRPSPDITLEDIKEELLKKNPEVEEVEVEEYPEEGLYKVKVTIKPKSAGGSAGGS [r20_31_JUSTAS],< -1 kcal/mol
14,SAGGSAGGSMKVELIRTEEGKVVATEFFPVPLLLPGGVPALLEGSRTIKTIPVKDPEKAKELLSAGGSAGGS [r12_915_JUSTAS],< -1 kcal/mol
15,SAGGSAGGSMKVRLLIGEEEVEKAIAEGIPKEVMKPEKEKIPSSTDPRFAGNPEPVLLYYIGESAGGSAGGS [r12_78_JUSTAS],< -1 kcal/mol
16,SAGGSAGGSMPYEVTITDPNSDRTRTRKVSGDSPEISEAVPPSHTVTLTFGGTKTTLPVPALSSAGGSAGGS [r20_36_JUSTAS],< -1 kcal/mol
17,SAGGSAGGSMSIPSDATLVRTYRRGGEELTVSGSVDPATGTVLSEGSLSKRPDATLTEVSVVSSAGGSAGGS [r12_6_JUSTAS],< -1 kcal/mol
18,SAGGSAGGSMTFKLKDGKVITYDPANPTLHFPGPPETIPTGGANIAQTIADLKAKGFDYEEVVESAGGSAGG [r6_340_JUSTAS],< -1 kcal/mol
19,SAGGSAGGSMVEEFETTEFSPPEPLVRVERLKKEIFTFPENSLSYKVTPVEERLVTPEEVAAESAGGSAGGS [r12_374_JUSTAS],< -1 kcal/mol

row,Sequence,folding stability dG unfold
1,SAGGSAGGSMVEVVVRPPGGPEYRVSPETSPEEVRARVEAEAGPPPEIEISEEEAKALGVPARSAGGSAGGS [r12_379_JUSTAS],< -1 kcal/mol
2,SAGGSAGGSNGNYRIKIKIRKPNGEPKSQHTFNIPSPEQIKESLAQQPGFPPDRIEDVEVGPYSAGGSAGGS [r12_182_TrROS],< -1 kcal/mol
3,SAGGSAGGSPKEYYIRVKDPEKAKEIMKPLGWPIKPGDEFPIKDPEDILEKLPGIEGIEIHPVSAGGSAGGS [r12_571_TrROS],< -1 kcal/mol
4,SAGGSAGGSPLYIQIERRNPKNGENQTLELPIPIDGDPSDARDIAKEIAEQLPPNDYKIEVFRSAGGSAGGS [r12_871_TrROS],< -1 kcal/mol
5,SAGGSAGGSPPKPITIMAPYDSPEEAMDKAEEIADELANEGYDIKDVEIEYHPNNGYAMVRIRSAGGSAGGS [r20_155_TrROS],< -1 kcal/mol
6,SAGGSAGGSPSITIEKDKEKPVYKVTVYTPNGEKKVFENPEGKKVTTDSNGGEIYIDDVKINVSAGGSAGGS [r12_346_TrMRF],< -1 kcal/mol
7,SAGGSAGGSPYKEIPFRFPENGYKVHIKKDPNGSVKIYVMGPNMRERTIPPDEPLEIEPGARLSAGGSAGGS [r12_1003_TrROS],-0.46 ± 0.63 kcal/mol
8,SAGGSAGGSRTIHIPHNAMDKMPPSFEKKIRELADELNIDIEHNNNWMTIPVKGLTEEAIKEFSAGGSAGGS [r12_945_TrROS],< -1 kcal/mol
9,SAGGSAGGSSMPVLPVRTEEFPHPDSVYTVTTTRYPPTGATVTVLSTRFPGPPEVVTSTTVTPSAGGSAGGS [r12_14_JUSTAS],< -1 kcal/mol
10,SAGGSAGGSSMSFSFSERRDGKEYSVSVTTAVTPLTLPNGTLRTLTTPTTTVTDPSGKVLSTSSAGGSAGGS [r20_224_JUSTAS],< -1 kcal/mol
11,SAGGSAGGSSMTPVSSTRSSPSNSVTYTTSRIPIDPSPGKVLNVTTTYSPDPSVTTTTTTVEPSSAGGSAGG [r6_13_JUSTAS],< -1 kcal/mol
12,SAGGSAGGSTIPIRDPNREIEIVKHPDNMYRIEIEPNGGKREIILPPEAMQQKPITIEELIDQSAGGSAGGS [r20_90_TrROS],< -1 kcal/mol
13,SAGGSAGGSTMEKLQDKAKELGPNVSVEPSQDGPDSIKITFDPDHPKKIKDIAKEYGIKVQIYSAGGSAGGS [r12_74_TrROS],< -1 kcal/mol
14,SAGGSAGGSVKELAKKAGIKDIDVEPHPNDGWVEIKITMKNPKNGKKREGNILIRDPKDGEPLSAGGSAGGS [r12_133_TrROS],< -1 kcal/mol
15,SAGGSAGGSVKITRTPNGYYTVKIEDPGGVPVEIPVPADDPGMTNKEAEDEVKPIAKEFKRLKSAGGSAGGS [r12_642_TrROS],< -1 kcal/mol
16,SAGGSAGGSVVPIEYDEDGMLKIEHRNNDKKREHTIPADDADEMPPDFLKDLPPDKIDEITPYSAGGSAGGS [r12_793_TrROS],< -1 kcal/mol
17,SAGGSAGGSYKLGSKLIKEVTSEATPGPSTLETITLEDKTYPITLVGDSLNISPELKKAIELNSAGGSAGGS [r20_92_JUSTAS],< -1 kcal/mol
18,SAGGSAGGVRVRVVYPDGEPIGEIDIQLPPEMPQDQRQVKELAENIASRFKENGRKVKVEIEPPSAGGSAGG [r6_884_TrROS],< -1 kcal/mol
19,SAGGSAGGVSKVLEVRPAPGSGTYTVRTLREDPATGTTTEEVLTIPTSRPEVVDSLPPDATVELSAGGSAGG [r6_979_JUSTAS],< -1 kcal/mol
